The values that follow come from doi:10.1101/2024.12.09.627633 (bioRxiv, 2024).

This data set concerns the molecule itself. The experiment in a line: thioflavin T fluorescence of in vitro polymerisation; CAF domains 30 uM polymerised at 37 C with shaking at 200 rpm; ThT added at each time point; excitation 444 nm, emission 480 nm.

B1: CAF domain (residues 148-223) of G175S human PMEL (domain or fragment, UniProt P40967 148-223, looked up)
chain: SFVYVWKTWGQYWQVLGGPVSGLSIGTSRAMLGTHTMEVTVYHRRGSRSYVPLAHSSSAFTITDQVPFSVSVSQLR
notes: PMEL, human, CAF (core amyloid-forming) domain, residues 148-223, with the G175S mutation linked to pigment dispersion syndrome; Polymerised in vitro in 150 mM sodium acetate pH 4.4 into two-protofilament fibrils; also called G175S CAF domain; G175S mutant; source: E. coli BL21 (DE3), pET24a, inclusion bodies, purified (Ni-NTA in 8M urea)
In the case of B1, the “fold final yield of polymerized amyloids against the wild type” value is roughly 4 fold and the “fold rate of polymerisation against the wild type” value is roughly 4 fold.
